Among the targets are CHK2 (h) (human) (UniProt O96017); Rsk4 (h) (human) (UniProt Q9UK32); Lck (h) (human) (UniProt P06239).
Common to all, as to assay: cell-based or functional assay
The target of a further assay is T1, LKB1 (h) (human) (UniProt Q15831).
T1 sequence (looked up): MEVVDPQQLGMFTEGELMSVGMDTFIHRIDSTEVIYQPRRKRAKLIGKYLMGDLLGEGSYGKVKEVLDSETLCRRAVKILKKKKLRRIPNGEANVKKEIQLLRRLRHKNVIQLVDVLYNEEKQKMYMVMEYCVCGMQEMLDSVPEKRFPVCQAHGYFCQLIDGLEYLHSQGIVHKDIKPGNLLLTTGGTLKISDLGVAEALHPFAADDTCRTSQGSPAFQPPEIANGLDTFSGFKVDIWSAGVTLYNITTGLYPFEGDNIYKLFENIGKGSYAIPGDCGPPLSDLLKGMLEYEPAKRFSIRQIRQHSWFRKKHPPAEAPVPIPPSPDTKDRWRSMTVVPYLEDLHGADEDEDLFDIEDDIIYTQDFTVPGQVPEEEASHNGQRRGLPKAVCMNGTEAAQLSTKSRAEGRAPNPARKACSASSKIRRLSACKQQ

For assay [1], the target named is CDK6/cyclinD3 (h) (human) (UniProt Q00534).
Sequence of CDK6/cyclinD3 (h) (human) (Q00534 whole entry, chain 1 of 2): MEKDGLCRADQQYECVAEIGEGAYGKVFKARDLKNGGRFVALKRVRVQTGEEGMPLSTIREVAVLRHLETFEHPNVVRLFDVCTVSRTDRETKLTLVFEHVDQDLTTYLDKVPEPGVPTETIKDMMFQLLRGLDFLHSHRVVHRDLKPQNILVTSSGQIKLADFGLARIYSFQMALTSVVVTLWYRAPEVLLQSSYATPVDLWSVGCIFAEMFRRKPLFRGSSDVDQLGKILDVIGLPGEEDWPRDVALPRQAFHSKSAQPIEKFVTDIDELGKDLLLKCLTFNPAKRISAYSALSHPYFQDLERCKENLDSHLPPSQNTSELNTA
Sequence of CDK6/cyclinD3 (h) (human) (P30281 whole entry, chain 2 of 2, further chain): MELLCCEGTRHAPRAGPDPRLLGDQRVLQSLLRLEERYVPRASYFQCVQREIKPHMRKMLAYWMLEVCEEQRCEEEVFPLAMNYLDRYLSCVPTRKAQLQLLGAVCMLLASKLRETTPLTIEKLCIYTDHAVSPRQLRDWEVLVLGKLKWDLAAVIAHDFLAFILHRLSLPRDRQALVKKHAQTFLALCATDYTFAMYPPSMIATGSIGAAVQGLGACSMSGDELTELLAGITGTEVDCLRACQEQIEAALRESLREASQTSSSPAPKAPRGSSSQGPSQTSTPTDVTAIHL
The target in a further assay is T2, PKCζ (h) (human) (UniProt Q05513).
T2 sequence (looked up): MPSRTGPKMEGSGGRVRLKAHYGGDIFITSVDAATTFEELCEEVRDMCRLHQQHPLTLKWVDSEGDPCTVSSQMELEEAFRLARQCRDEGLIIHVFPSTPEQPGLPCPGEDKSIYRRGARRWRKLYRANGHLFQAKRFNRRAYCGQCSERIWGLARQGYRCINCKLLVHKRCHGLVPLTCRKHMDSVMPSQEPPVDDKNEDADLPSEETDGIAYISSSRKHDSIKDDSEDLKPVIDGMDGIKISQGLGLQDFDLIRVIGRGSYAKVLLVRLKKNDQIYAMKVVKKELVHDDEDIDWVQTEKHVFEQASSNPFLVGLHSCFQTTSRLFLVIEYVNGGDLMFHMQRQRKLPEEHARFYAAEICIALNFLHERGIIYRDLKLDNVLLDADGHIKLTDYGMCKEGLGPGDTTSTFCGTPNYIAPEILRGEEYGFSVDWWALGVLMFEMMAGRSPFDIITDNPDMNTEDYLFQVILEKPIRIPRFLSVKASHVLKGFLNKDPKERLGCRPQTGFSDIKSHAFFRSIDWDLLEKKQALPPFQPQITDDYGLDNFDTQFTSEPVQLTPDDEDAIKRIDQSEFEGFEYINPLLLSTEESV

In assay [2] the target is PDGFRα (V561D) (h) (human) (UniProt P16234).
Sequence of PDGFRα (V561D) (h) (human) (P16234 550-1089 V561D limits assumed): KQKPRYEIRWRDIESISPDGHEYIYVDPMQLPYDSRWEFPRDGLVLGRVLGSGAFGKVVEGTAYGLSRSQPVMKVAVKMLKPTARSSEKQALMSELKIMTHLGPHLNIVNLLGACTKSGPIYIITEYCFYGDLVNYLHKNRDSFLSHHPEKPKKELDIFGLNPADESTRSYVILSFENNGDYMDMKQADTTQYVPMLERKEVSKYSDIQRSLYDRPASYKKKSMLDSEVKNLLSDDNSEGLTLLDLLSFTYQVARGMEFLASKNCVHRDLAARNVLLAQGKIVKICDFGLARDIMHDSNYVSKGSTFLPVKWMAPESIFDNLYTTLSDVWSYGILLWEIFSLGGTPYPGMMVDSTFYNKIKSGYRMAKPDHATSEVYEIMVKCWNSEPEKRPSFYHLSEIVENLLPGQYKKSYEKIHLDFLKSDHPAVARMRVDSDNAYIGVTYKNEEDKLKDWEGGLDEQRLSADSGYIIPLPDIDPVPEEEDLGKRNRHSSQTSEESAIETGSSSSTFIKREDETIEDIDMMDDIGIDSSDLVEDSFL

This is an account of results in patent US20160136234A1.

Sequence of CHK2 (h) (human) (O96017 5-543 limits assumed): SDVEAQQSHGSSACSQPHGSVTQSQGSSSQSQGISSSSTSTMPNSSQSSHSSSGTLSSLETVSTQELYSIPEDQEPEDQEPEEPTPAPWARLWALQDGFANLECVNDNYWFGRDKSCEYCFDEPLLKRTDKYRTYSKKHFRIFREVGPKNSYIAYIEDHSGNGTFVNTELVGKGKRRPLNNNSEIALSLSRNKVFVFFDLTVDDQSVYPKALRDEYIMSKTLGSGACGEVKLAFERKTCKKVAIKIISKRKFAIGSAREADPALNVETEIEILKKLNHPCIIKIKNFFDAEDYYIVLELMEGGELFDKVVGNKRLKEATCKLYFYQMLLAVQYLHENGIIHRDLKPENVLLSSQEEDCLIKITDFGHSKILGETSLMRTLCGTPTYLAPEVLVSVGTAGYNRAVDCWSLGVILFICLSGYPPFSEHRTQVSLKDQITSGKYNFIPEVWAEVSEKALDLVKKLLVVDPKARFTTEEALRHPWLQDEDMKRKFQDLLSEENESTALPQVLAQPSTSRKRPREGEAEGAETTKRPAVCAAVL
Sequence of Rsk4 (h) (human) (Q9UK32 whole entry): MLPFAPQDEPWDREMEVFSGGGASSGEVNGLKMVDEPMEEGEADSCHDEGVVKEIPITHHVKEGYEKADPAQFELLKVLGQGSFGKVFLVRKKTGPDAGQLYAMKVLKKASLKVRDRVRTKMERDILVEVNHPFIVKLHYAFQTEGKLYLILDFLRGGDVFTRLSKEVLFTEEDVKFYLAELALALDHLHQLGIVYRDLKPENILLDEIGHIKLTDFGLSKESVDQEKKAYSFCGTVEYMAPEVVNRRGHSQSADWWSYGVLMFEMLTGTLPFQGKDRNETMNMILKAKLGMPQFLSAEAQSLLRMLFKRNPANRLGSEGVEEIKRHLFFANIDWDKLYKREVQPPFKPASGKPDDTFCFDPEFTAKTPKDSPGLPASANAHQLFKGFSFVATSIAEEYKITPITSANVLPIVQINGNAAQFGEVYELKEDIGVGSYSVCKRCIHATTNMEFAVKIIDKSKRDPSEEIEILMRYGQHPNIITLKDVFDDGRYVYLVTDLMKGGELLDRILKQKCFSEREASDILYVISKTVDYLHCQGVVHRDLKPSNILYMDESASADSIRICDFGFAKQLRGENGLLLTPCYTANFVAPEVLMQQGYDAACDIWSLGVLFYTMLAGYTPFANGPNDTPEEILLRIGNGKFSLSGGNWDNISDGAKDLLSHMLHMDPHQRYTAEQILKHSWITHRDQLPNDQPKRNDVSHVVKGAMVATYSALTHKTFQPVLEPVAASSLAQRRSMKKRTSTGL

Take MMI-0300 (peptide): the % activity at 100 µM in the assay with LKB1 (h) (human) was found to be 101%; in assay [1] it was 86%; with PKCζ (h) (human) it was 81%; in assay [2], 82%; with CHK2 (h) (human) it was 66%; in the assay with Rsk4 (h) (human) it was 90%. Besides, the % activity at 100 µM with Lck (h) (human) was -2%.
